This note sets out measurements from PMC9852238 (Nature Communications, 2023).

Experiment [1] has as its target T1, Yunnan2011 (Yun11)-CoV RBD-His8-SpyTag003 (Bat coronavirus Cp/Yunnan2011).
T1 construct: clade 2
Kind of experiment: ELISA. The note with it: both partners purified.

Experiment [2] concerns the target SHC014-CoV RBD-His8-SpyTag003 (Bat SARS-like coronavirus RsSHC014). Kind of experiment: ELISA. The note with it: both partners purified. In general terms: ELISA stands for enzyme-linked immunosorbent assay.
The target of experiment [3] is Rs4081-CoV RBD-His8-SpyTag003 (Bat SARS-like coronavirus Rs4081). Kind of experiment: ELISA. The note with it: both partners purified.
In experiment [4] the target is T2, Rf1-CoV RBD-His8-SpyTag003 (Bat SARS-like coronavirus Rf1).
T2 construct: clade 2
The experiment can be described thus: ELISA. The note with it: both partners purified.

Experiment [5] addresses RmYN02-CoV RBD-His8-SpyTag003 (Bat coronavirus RmYN02). The experiment can be described thus: ELISA. The note with it: both partners purified.
Experiment [6] has as its target RaTG13-CoV RBD-His8-SpyTag003 (Bat coronavirus RaTG13). Kind of experiment: ELISA. The note with it: both partners purified.
Experiment [7] deals with pangolin17 (pang17)-CoV RBD-His8-SpyTag003 (pangolin17-CoV). The experiment can be described thus: ELISA. The note with it: both partners purified.
The target in experiment [8] is BM48-31-CoV RBD-His8-SpyTag003 (Bat coronavirus BM48-31). The experiment can be described thus: ELISA. The note with it: both partners purified.
In experiment [9] the target is WIV1-CoV RBD-His8-SpyTag003 (Bat SARS-like coronavirus WIV1). The experiment can be described thus: ELISA. The note with it: both partners purified.
Experiment [10] deals with SARS-CoV-2 spike (S) protein, ELISA antigen (SARS-CoV-2, Wuhan-Hu-1 (assumed), UniProt P0DTC2). Kind of experiment: ELISA. The note with it: both partners purified.
Experiment [11] deals with T3, SARS-CoV-2 RBD (wild type), ELISA antigen (SARS-CoV-2, UniProt P0DTC2). The experiment can be described thus: ELISA. The note with it: both partners purified.
In experiment [12] the target is SARS-CoV spike, ELISA antigen (SARS-CoV, strain not named (reference …, UniProt P59594)). Kind of experiment: ELISA. The note with it: both partners purified.
Experiment [13] concerns the target SARS-CoV RBD-His8-SpyTag003 (SARS-CoV (GenBank ON131087, strain not …, UniProt P59594)). The experiment can be described thus: ELISA. The note with it: both partners purified.
For experiment [14], the target named is T3, SARS-CoV-2 RBD (wild type), ELISA …. The experiment can be described thus: cell-based or functional assay.

B1: IY-2A (antibody, V domains shown)
VH: QVQLVEWGAGLLKPSETLSLTCAVYGGSFSGYYWSWIRQPPGKGLEWIGLINHSGSTNYNPSLKSRVTISLDTSKNQFSLKLTSVTAADTAVYYCARGLGIFGVVTLSDVWGQGTTVTVSS
VL: NFMLTQPHSVSESPGKTVTISCTGSSGSIASNYVQWYQQRPGSAPTTVIYEDNQRPSGVPDRFSGSIDSSSNSASLTISGLRTEDEADYYCQSYDSGIWVFGGGTKLTVL
notes: source: ExpiCHO cells, transiently transfected, purified (rProtein A Sepharose); copies: 2 + 2
As to B1, the binding result in [1], in [2], in [3], in experiment [4], in [5] and in [6] was “binds” each time. The binding result in experiment [7], in experiment [8] and in experiment [9] was “binds” throughout. The “OD in ELISA at 1 µg/ml” value in experiment [10] is 1.8 OD; in [11], 1.87 OD; in experiment [12] it was 1.78 OD.

B2: FP-12A (antibody, V domains shown)
VH: EVQLVESGGGVVQPGRSLRLSCAASGFTFSSYGMHWVRQAPGKGLEWVAVISYDGSNKYYADSVKGRFTISRDNSKNTLYLQMNSLRAEDTAVYYCANGFGEYYYYAMDVWGQGTTVTVSS
VL: NFMLTQPHSVSESPGKTVTISCTGSSGSIASNYVQWYQRRPGSAPTTVIYEDNQRPSGVPDRFSASIDSSSNSASLTISGLKTEDEADYYCQSYDSSNWVFGGGTKLTVL
notes: copies: 2 + 2
Consider B2, for which the binding result in experiment [1], in experiment [13], in experiment [2], in experiment [3], in experiment [4] and in experiment [5] was “no binding (tested: 50 nM)” each time. Moreover, the binding result in experiment [6], in experiment [7], in experiment [8] and in experiment [9] was “no binding (tested: 50 nM)” in each case. Besides, the “OD in ELISA at 1 µg/ml” value worked out at 1.76 OD in [10] and 1.79 OD in experiment [11].

B3: IS-9A (antibody, V domains shown)
VH: QVQLVQSGAEVKKPGESLRISCKGSGYSFTNYWISWVRQMPGKGLEWMGRIDPSDSYINYSPSFQGHATISADKSISTAYLQWGSLKASDTAMYYCARGRNYLDSRGRFDYWGQGTLVTVSS
VL: DIVMTQSPSSLSASVGDRVTITCQASQDISNYLNWYQQKSGKAPKLLIYDASNLETGVPSRFSGSGSGTDFTFTISSLQPEDIATYYCQQYDSLGFTFGPGTKVEIR
notes: as for B1
B3: the binding result in [2], in [6] and in experiment [9] was “binds” throughout. Also, the “IC50 of neutralisation of SARS-CoV-2 (potency of IS-9A)” value in experiment [14] came to 0.03 µg/mL. The entries for the “OD in ELISA at 1 µg/ml” value in experiment [10], in [11] and in experiment [12] were 1.78 OD, 1.88 OD and 1.83 OD, respectively.

B4: EY-6A (antibody, V domains shown)
VH: EVQLVESGGGVVQPGRSLRLSCAASAFTFSSYDMHWVRQAPGKGLEWVAVISYDGSNKYYADSVKGRFTISRDNSKNTLYLQMNSLRAEDTAVYYCAKDGGKLWVYYFDYWGQGTTVTVSS
VL: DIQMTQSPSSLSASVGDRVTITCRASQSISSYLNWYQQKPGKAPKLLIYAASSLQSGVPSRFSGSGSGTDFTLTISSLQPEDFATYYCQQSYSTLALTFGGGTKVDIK
notes: also called mAb EY-6A; source: ExpiCHO cells, transiently transfected, purified (rProtein A Sepharose); copies: 2 + 2
Consider B4, for which the binding result in experiment [1], in [2], in experiment [3], in experiment [4], in experiment [5] and in experiment [6] was “binds” each time. Besides, the binding result in experiment [7], in [8] and in experiment [9] was “binds” in each case. Besides, the “OD in ELISA at 1 µg/ml” value in experiment [10] is 1.75 OD; in experiment [11], 1.81 OD; in [12] it was 1.67 OD.
